Test results reported in publication PMC10121901.

Key:
[1] = biological target: CA-N21C A22C (CA spheres) (HIV-1); test: negative-stain EM of NuPODs mixed with CA assemblies
[2] = biological target: CA-N21C A22C (CA spheres) (HIV-1); test: co-sedimentation
[3] = biological target: CA-A14C E45C (disulfide-crosslinked CA tubes; also assembled into cones with IP6) (HIV-1); test: negative-stain EM of NuPODs mixed with CA assemblies

Substance	fold preference for binding to spheres over tubes (NuPODs in excess) [1] [fold]	percent of NuPODs in the supernatant (with the CA spheres) [2] [%]	percent of NuPODs bound to CA spheres and CA tubes at the same time [3] [%]	percent of NuPODs bound to CA spheres and CA tubes at the same time [1] [%]
MBP-Nup153^(CTD, aa 896–1475) (from UniProt P49790 896-1475) (domain or fragment)	60	95		
Nup358^(RBD4-CycH, aa 2911–3225) (from UniProt P49792 2911-3224) (domain or fragment)			20 to 50	20 to 50
